Primed or numbered codes have the meaning given here. Where no end group is shown, it is not given here. Biotin′ = not defined here

Test [1] addresses recombinant PRC2 purified from SF9 cells (EZH2, SUZ12, EED, RBBP4) (human, UniProt Q15910 1-746; Q15022 1-739; O75530 1-441; Q09028 1-425). In words: cell-based or functional assay.
Test [2] addresses native PRC2 purified from HeLa cells expressing FLAG-tagged EZH2 ( | human (endogenous in HeLa), UniProt Q15910 1-746). As to the kind of experiment: steady-state enzyme kinetics (inhibition of methyltransferase activity); increasing oligonucleosome substrate with PRC2, SAM and varying EZHIP; Michaelis-Menten and Lineweaver-Burk curves fitted with competitive mode of inhibition. Conditions: both partners purified.

Chain of recombinant PRC2 purified from SF9 cells (EZH2, SUZ12, EED, RBBP4) (Q15910 whole entry, chain 1 of 4): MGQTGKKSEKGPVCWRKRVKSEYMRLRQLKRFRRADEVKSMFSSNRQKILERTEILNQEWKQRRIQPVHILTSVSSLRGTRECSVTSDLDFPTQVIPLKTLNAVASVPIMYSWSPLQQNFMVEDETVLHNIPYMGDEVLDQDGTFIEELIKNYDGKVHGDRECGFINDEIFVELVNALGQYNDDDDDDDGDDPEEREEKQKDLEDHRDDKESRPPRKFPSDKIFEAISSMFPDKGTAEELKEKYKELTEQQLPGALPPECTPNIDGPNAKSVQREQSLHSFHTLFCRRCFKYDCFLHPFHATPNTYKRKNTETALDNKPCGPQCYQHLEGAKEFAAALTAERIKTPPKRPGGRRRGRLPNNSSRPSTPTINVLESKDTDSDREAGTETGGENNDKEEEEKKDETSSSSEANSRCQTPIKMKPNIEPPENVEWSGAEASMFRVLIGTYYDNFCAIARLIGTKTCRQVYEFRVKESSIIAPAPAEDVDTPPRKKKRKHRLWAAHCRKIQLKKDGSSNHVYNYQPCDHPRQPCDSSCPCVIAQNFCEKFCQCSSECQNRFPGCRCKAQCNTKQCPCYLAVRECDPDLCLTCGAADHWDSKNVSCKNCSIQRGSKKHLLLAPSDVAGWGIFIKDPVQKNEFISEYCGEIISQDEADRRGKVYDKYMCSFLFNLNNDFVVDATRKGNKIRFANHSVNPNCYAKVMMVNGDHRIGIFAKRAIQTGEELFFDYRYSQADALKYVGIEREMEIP
Chain of recombinant PRC2 purified from SF9 cells (EZH2, SUZ12, EED, RBBP4) (Q15022 whole entry, chain 2 of 4): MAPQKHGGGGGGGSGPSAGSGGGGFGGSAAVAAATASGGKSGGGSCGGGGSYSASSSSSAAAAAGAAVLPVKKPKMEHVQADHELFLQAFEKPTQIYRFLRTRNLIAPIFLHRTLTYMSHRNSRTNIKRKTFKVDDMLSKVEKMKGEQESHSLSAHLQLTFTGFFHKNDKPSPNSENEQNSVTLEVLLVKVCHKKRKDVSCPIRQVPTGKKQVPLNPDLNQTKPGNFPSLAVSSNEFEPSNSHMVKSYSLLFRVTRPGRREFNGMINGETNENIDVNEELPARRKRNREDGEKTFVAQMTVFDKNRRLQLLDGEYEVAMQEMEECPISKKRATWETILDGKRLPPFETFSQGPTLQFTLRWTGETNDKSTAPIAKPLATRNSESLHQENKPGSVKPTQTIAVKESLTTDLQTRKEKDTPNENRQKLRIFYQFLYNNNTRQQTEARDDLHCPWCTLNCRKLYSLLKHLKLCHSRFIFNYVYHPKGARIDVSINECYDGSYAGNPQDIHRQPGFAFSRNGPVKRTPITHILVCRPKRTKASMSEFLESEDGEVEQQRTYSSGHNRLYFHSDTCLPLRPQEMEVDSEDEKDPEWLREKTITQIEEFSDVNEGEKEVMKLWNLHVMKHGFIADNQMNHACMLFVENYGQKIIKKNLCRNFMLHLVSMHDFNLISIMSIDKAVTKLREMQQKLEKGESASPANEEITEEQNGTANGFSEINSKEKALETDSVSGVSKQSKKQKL
Chain of recombinant PRC2 purified from SF9 cells (EZH2, SUZ12, EED, RBBP4) (O75530 whole entry, chain 3 of 4): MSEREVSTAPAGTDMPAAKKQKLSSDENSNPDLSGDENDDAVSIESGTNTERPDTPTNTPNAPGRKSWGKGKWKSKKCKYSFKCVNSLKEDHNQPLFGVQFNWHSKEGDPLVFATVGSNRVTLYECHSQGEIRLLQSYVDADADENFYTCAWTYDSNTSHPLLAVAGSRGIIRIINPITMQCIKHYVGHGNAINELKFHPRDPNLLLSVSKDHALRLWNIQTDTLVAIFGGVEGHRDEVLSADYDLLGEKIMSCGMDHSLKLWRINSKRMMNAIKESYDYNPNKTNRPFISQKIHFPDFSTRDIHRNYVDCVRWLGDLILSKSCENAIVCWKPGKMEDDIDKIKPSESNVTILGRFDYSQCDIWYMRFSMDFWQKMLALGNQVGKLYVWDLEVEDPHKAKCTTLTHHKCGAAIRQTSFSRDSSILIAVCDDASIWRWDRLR
Chain of recombinant PRC2 purified from SF9 cells (EZH2, SUZ12, EED, RBBP4) (Q09028 whole entry, chain 4 of 4): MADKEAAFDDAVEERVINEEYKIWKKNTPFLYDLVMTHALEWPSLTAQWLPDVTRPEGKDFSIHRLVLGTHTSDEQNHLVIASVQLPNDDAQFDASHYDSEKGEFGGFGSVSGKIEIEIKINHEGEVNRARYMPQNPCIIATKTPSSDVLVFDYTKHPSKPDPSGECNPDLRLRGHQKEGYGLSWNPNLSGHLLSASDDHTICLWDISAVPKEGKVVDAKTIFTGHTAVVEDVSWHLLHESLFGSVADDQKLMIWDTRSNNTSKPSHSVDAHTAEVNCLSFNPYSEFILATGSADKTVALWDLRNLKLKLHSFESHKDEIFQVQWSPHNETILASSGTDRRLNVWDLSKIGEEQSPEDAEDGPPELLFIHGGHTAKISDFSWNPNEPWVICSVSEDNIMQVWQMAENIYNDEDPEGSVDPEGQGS
Chain of native PRC2 purified from HeLa cells expressing FLAG-tagged EZH2 (Q15910 whole entry, chain 1 of 4): as the sequence (Q15910 whole entry, chain 1 of 4) above
Chain of native PRC2 purified from HeLa cells expressing FLAG-tagged EZH2 (Q15022 whole entry, chain 2 of 4, further chain): as the sequence (Q15022 whole entry, chain 2 of 4) above
Chain of native PRC2 purified from HeLa cells expressing FLAG-tagged EZH2 (O75530 2-441, chain 3 of 4, further chain): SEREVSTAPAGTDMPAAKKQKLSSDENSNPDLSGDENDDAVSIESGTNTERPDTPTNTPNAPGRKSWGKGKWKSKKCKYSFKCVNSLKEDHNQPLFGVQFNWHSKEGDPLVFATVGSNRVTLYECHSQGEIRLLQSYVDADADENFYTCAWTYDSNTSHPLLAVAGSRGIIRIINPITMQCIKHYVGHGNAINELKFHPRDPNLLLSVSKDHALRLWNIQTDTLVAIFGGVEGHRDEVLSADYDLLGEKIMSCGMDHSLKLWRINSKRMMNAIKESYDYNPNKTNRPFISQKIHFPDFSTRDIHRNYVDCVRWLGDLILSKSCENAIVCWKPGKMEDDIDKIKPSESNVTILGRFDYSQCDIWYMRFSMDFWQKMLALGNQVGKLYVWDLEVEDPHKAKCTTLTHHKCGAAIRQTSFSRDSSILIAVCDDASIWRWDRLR
Chain of native PRC2 purified from HeLa cells expressing FLAG-tagged EZH2 (Q09028 2-425, chain 4 of 4, further chain): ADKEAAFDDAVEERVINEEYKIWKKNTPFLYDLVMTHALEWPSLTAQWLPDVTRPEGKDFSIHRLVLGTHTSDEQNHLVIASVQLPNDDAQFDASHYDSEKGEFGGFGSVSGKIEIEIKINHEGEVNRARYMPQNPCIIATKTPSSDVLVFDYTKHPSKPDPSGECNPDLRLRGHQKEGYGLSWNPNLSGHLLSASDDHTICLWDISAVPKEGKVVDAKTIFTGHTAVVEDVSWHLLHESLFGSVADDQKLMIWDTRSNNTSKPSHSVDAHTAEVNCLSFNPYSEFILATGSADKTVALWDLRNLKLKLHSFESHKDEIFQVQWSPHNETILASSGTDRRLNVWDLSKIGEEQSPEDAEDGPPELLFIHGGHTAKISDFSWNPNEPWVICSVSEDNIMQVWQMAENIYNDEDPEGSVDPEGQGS

Consider AVRMRASSPSPPGRFFLPIPK-{Biotin′} (not fully specified (residue 21); printed as AVRMRASSPSPPGRFFLPIPK-biotin) [biotinylated EZHIP (403-422) peptide, K27M-like peptide], for which, in test [1], the “IC50 of PRC2 methyltransferase activity on H3 18-37 peptide, EZHIP KLP titrated, without H3K27me3 stimulatory peptide” value amounted to 35 µM and the “IC50 of rPRC2-Ezh2 methyltransferase activity on H3 (18-37) peptide substrate, KLP (403-423) peptide titrated, with H3K27me3 stimulatory peptide” value was found to be 4.1 µM.
On to KQLATKAARMSAPSTGGVKKYK (not fully specified; biotin on the added C-terminal K) [biotinylated H3.3 K27M (18-37) peptide], for which, in test [1], the “IC50 of rPRC2-Ezh2 methyltransferase activity on H3 (18-37) peptide substrate, H3 K27M (18-37) peptide titrated, with H3K27me3 stimulatory peptide” value worked out at 27.9 µM.

B1: recombinant EZHIP purified from SF9 cells (natural protein)
chain: MATQSDMEKEQKHQQDEGQGGLNNETALASGDACGTGNQDPAASVTTVSSQASPSGGAALSSSTAGSSAAAATSAAIFITDEASGLPIIAAVLTERHSDRQDCRSPHEVFGCVVPEGGSQAAVGPQKATGHADEHLAQTKSPGNSRRRKQPCRNQAAPAQKPPGRRLFPEPLPPSSPGFRPSSYPCSGASTSSQATQPGPALLSHASEARPATRSRITLVASALRRRASGPGPVIRGCTAQPGPAFPHRATHLDPARLSPESAPGPARRGRASVPGPARRGCDSAPGPARRGRDSAPVSAPRGRDSAPGSARRGRDSAPGPALRVRTARSDAGHRSTSTTPGTGLRSRSTQQRSALLSRRSLSGSADENPSCGTGSERLAFQSRSGSPDPEVPSRASPPVWHAVRMRASSPSPPGRFFLPIPQQWDESSSSSYASNSSSPSRSPGLSPSSPSPEFLGLRSISTPSPESLRYALMPEFYALSPVPPEEQAEIESTAHPATPPEP
One may read the Ki as a dissociation constant, usually derived from enzyme kinetics or from competition with a known ligand. The low end stands for a stronger hold on the target, the high end for a looser hold on the target. In test [2], B1 displayed a Ki of 0.00222 µM.

The record behind these values is publication PMC6513997, “PFA ependymoma-associated protein EZHIP inhibits PRC2 activity through a H3 K27M-like mechanism” (Nature Communications, 2019).
